Paper PMC12327374 (Biomedicine & pharmacotherapy = Biomedecine & …, 2024)

Biological target: SUSD5 protein, expressed on HEK293 cells (ZsGreen1-SUSD5 vector) (Homo sapiens, UniProt O60279)
Assay: flow cytometry on cells

Chain of SUSD5 protein, expressed on HEK293 cells (ZsGreen1-SUSD5 vector) (O60279 36-629): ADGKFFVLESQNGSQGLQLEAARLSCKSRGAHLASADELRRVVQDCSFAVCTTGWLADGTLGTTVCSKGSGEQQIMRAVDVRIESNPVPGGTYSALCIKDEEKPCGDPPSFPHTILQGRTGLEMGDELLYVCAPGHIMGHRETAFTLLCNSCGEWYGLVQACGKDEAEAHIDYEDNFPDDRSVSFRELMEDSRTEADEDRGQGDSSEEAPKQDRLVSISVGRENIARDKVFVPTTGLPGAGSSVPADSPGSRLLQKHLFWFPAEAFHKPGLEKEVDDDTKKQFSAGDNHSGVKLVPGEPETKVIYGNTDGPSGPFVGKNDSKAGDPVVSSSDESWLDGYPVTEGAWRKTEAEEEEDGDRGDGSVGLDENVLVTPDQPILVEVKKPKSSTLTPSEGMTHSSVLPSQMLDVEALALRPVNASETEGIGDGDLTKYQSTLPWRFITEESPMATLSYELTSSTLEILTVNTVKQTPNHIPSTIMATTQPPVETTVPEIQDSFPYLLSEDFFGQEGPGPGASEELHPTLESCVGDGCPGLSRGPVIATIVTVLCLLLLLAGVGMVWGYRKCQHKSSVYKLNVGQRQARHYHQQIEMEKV

B1: h1-3F1, stabilized humanized anti-CD169 mAb of clone #3F1 (variant 6 of h0-3F1) (antibody, V domains shown)
VH: QVQLVQSGAEVKKPGASVKVSCKASGYSFTTYYMHWVRQAPGQRLEWMGWISAYSGATKYSQKFQGRVTITRDTSASTAYMELSSLRSEDTAVYYCARKGGWIPFDYWGQGTTVTVSS
VL: not shown
- binding result: binds
